Where two headings read alike, the source gives them in different places.
Key:
Assay in all cases: cell-based or functional assay
[1] = target: Mouse IL-11 (mouse) (UniProt P47873)
[2] = target: IL-11:IL-11Rα fusion protein (hyper IL-11) (human)
[3] = target: Mouse IL-11 (mouse) (UniProt P47873); remark: listed apart in the source
[4] = target: Human IL-11 (human) (UniProt P20809)
Chain of Human IL-11 (human) (P20809 22-199 limits assumed): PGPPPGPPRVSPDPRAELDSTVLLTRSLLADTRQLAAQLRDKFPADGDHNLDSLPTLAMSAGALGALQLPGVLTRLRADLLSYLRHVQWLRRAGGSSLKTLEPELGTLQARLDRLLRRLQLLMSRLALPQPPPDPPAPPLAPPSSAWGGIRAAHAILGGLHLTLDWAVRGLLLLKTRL

Chain of Mouse IL-11 (mouse) (P47873 22-199 limits assumed): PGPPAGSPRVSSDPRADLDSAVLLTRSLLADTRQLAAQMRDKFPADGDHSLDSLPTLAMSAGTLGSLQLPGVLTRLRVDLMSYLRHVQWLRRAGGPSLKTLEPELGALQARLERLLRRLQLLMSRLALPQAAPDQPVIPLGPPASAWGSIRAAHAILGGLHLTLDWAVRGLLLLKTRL
Chain of IL-11:IL-11Rα fusion protein (hyper IL-11) (human) (chain, as listed by the source limits assumed): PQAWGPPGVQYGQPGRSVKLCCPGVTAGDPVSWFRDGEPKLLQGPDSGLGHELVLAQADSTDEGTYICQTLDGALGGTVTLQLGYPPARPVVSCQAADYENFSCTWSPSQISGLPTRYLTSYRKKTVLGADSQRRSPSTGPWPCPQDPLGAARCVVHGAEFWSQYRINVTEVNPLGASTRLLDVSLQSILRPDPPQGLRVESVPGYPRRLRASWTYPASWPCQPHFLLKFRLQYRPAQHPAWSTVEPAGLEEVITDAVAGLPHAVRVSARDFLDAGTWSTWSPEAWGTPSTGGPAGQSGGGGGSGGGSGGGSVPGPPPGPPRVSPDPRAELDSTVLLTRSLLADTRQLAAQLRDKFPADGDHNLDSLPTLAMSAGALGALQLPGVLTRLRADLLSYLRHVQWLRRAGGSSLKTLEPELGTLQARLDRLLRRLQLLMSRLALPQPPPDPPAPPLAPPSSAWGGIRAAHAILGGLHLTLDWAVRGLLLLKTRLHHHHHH

- fold of αSMA-positive cells relative to unstimulated cells, mouse atrial fibroblasts + TGFβ1 (fold of unstimulated) [1]: 1.44
- percentage of activated (αSMA-positive) fibroblasts, mouse atrial fibroblasts + TGFβ1 [1]: 43%
- fold of αSMA-positive cells relative to unstimulated cells, human atrial fibroblasts + hyper IL-11 (fold of unstimulated) [2]: 1.28
- percentage of activated (αSMA-positive) fibroblasts, human atrial fibroblasts + hyper IL-11 [2]: 33.8%
- fold of αSMA-positive cells relative to unstimulated cells, mouse atrial fibroblasts + TGFβ1 (fold of unstimulated) [3]: 1.24
- percentage of activated (αSMA-positive) fibroblasts, mouse atrial fibroblasts + TGFβ1 [3]: 39.4%
- fold of αSMA-positive cells relative to unstimulated cells, human atrial fibroblasts + TGFβ1 [4]: 0.89 times
- fold of αSMA-positive cells relative to unstimulated cells, human atrial fibroblasts + TGFβ1 (fold of unstimulated) [4]: 0.99
- percentage of activated (αSMA-positive) fibroblasts, human atrial fibroblasts + TGFβ1 [4]: 28.3%
Substance: Monoclonal mouse anti-human IL-11 antibody, IgG2A, Clone #22626, Catalog No. MAB218 (R&D Systems)
